According to patent US20050059087A1, “Antibodies directed to the deletion mutants of epidermal growth factor receptor and uses thereof” (priority 2003, published 2005):

What was measured:
[1] = target: T1, NR6 Wt cells (NR6 cells expressing EGF receptor) (Homo sapiens, UniProt P00533); experiment: Native cell binding assay by FMAT, NR6 Wt cells; type: cell-based; conditions: total fluorescent intensity
T1 construct: expressed in transfected cells; host or cells: NR6 murine fibroblasts (NR6 Wt)

[2] = target: T2, EGFRvIII receptor on NR6 M cells (Homo sapiens, UniProt P00533, DELINS30-297G); experiment: Internalization assay of B-cell culture supernatants (FMAT, glutathione); type: cell-based
T2 construct: expressed in transfected cells; host or cells: NR6 murine fibroblasts (NR6 M)
Protocol: The top 60 native binding B cell culture supernatants were further assayed for their ability to internalize the receptor. NR6 M cells were seeded at 8000 cells/well into 96 well FMAT plates and incubated overnight. Media was removed and 10-15 μl B-Cell culture supernatant in a total volume of 30 μl media, in duplicate was added. Next, 15 μl of secondary antibody (SS Alexa 647 anti-human IgG Fab at 1.5 μg/ml final concentration) was added and the mixture was incubated on ice for 1 hr. An irrelevant B-Cell Culture supernatant was used to see the effect of the culture media. Human anti-EGFRvIII mAb 13.2.1 was used as a positive control starting at 1 μg/ml (final concentration) and negative control was PK 16.3.1 (human anti-KLH IgG2 antibody) at the same concentration. After incubation, the cells were washed with cold PBS, 50 μl media was added to all of the wells, one of the duplicates were incubated at 37° C. for 30 mins while the other duplicate remained on ice. After the incubations media was removed, 100 ul of cold 50 mM glutathione was added to the set incubated at 37° C. and 100 μl of cold media added to the other set, both sets were then left on ice for 1 hr. The cells were then washed with 100 μl cold PBS and then fixed with 1% paraformaldehyde and read in FMAT. The results were expressed as % intermalized, calculated as total fluorescence in the presence of glutathione/total fluorescence in the absence of glutathione X 100.

EGFRvIII-peptide-OVA = target: T3, EGFRvIII-peptide-OVA (Homo sapiens, UniProt P00533, DELINS30-297G); experiment: B-cell culture supernatant ELISA on EGFRvIII-peptide-OVA; type: binding; conditions: Table 3.8
T3 construct: purchased R&D Systems (custom synthesis); host or cells: synthetic peptide
Protocol: B-cells from the above-discussed animals were harvested and cultured. Those secreting EGFRvIII-peptide specific antibodies were isolated as described in Babcook et al., Proc. Natl. Acad. Sci. USA, 93:7843-7848 (1996). ELISA was used to identify primary EGFRvIII-peptide-OVA-specific wells. About 5 million B-cells were cultured from XenoMouse animals in 245 96 well plates at 500 or 150 or 50 cells/well, and were screened on EGFRvIII-peptide-OVA to identify the antigen-specific wells.

[3] = target: T4, native form of EGFRvIII stably expressed on NR6 cells (NR6 M cells) (Homo sapiens, UniProt P00533, DELINS30-297G); experiment: Native cell binding assay by FMAT, NR6 M cells; type: cell-based; conditions: total fluorescent intensity
T4 construct: expressed in transfected cells; host or cells: NR6 murine fibroblasts (NR6 M)

OVA = target: T5, OVA (Gallus gallus, UniProt P01012); experiment: B-cell culture supernatant control ELISA on OVA; type: binding; conditions: Table 3.8
T5 sequence (P01012 1-386): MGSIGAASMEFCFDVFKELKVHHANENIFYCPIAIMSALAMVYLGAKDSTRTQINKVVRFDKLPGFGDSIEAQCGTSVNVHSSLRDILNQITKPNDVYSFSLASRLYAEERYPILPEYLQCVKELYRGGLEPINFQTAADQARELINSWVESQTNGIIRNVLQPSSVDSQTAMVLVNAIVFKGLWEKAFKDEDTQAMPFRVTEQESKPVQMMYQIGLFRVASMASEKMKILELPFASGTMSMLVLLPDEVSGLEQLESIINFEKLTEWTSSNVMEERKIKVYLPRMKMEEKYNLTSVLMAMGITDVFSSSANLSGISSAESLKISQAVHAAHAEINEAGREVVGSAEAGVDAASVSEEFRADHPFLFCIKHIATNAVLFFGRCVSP
Description: 244 of EGFRvIII-peptide-OVA-Elisa positive wells of OD>0.5 were screened again on EGFRvIII-peptide-OVA and on OVA to confirm that they were EGFRvIII-peptide specific.

FMAT native binding to NR6 Wt cells [1]: 0
With glutathione FL1 × count ([2]; 37° C. for 30 mins, then 50 mM glutathione): 8708
% internalized, (glut+/glut−) × 100 ([2]; NR6 M cells, 37° C. 30 mins): 31.5%
No glutathione FL1 × count ([2]; set kept on ice, no glutathione): 27648
1′ VIII-pep-OVA OD (EGFRvIII-peptide-OVA): 2.1501
2′ VIII-pep-OVA OD (EGFRvIII-peptide-OVA): 2.8208
FMAT native binding to NR6 M cells [3]: 84024
OVA OD (OVA): 0.1515
B1: 129A7: B-cell culture supernatant well (antibody, V domains shown)
VH: QVQLVESGGGVVQPGRSLRLSCAASGFTLSSYGMHWVRQAPGKGLEWVAVMSYDGSKEDYADSVKGRFTISRDNSENTLYLQMNSLRAEDTAVYYCVSEGYCSSRSCYKYYYYGMDVWGQGTTVTVSS
VL: DIVMTQSPLSLPVTPGEPASISCRSSQSLLYRNGNNYLDWYLQKPGQSPQLLIYLGSNRASGVPDRFSGSGSGTDFTLNISRVEAEDVGHYYCMQALQTPRTFGQGTKVEIK
